Reference: US20260242478A1 (published 2026)
Where no end group is shown, it is not given here.

B1: Phage-253 (peptide)
peptide: MVGCATSMWNRCLT
modifications: cysteine pairing not given here; also: fused to phage pIII, linker and fusion site not given here
notes: Clonal phage of the Peptide-9 library, tested as crude phage supernatant; not shown: pIII of the bacteriophage
B2: Phage-252 (peptide)
peptide: MDWCPRHMWINCFA
modifications: cysteine pairing not given here; also: fused to phage pIII, linker and fusion site not given here
notes: as for B1
B3: Phage-251 (peptide)
peptide: MDWCPRFMWSECFS
modifications: cysteine pairing not given here; also: fused to phage pIII, linker and fusion site not given here
notes: as for B1

Each binder was assayed against T1, Anti-CD28 scFv (VH - linker 1 - VL) (biotinylated (site not given)) (assay: phage binding ELISA; biotinylated anti-CD28 scFv on neutravidin plate, bound phage detected with anti-M13-HRP).
T1 sequence (scFv, as listed by the source): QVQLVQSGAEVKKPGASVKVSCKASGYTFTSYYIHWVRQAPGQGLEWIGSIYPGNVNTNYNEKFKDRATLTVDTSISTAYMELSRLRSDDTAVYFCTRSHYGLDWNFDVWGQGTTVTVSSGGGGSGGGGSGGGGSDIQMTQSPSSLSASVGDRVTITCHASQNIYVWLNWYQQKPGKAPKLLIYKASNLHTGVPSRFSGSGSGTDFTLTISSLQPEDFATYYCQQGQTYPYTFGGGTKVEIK

Binder	CD28 scFv signal
B1	0.77
B2	0.92
B3	1.01

What follows are binders tested against T2, Anti-CD28 scFv (VH - linker 1 - VL) (biotinylated (site not stated)) (assay: phage ELISA; biotinylated anti-CD28 scFv on neutravidin plate, wells pre-incubated with soluble CD28 (competitor), anti-M13-HRP detection;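 note: bound clonal phage detected by peroxidase-labelled anti-M13 antibody, compared against wells given blocking buffer alone without soluble CD28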).
T2 construct: Biotinylated scFv captured on neutravidin coated plates in the panning ELISA
T2 sequence (scFv, as listed by the source): as above

Binder	CD28 scFv signal in presence of CD28
MDWCPRYLWHECFF (tested as crude phage supernatant) [Phage-301]	0.682
MDWCPRDLWSVCFS (tested as crude phage supernatant) [Phage-290]	0.116
MDWCPIYLWAECFN (tested as crude phage supernatant) [Phage-299]	0.307
MDWCPRDLWFACFA (tested as crude phage supernatant) [Phage-282]	0.794
MDWCPRYLWPVCFH (tested as crude phage supernatant) [Phage-307]	0.602
MDWCPRYLWDYCFA (tested as crude phage supernatant) [Phage-280]	0.382
MDWCPRSLWDYCFA (tested as crude phage supernatant) [Phage-294]	0.235
MDWCPRYLWTECFS (tested as crude phage supernatant) [Phage-303]	0.329
MDWCPRDLWTECFS (tested as crude phage supernatant) [Phage-305]	0.174
MDWCPRSLWFLCFN (tested as crude phage supernatant) [Phage-281]	1.77
MDWCPKSLWAECFN (tested as crude phage supernatant) [Phage-308]	0.162
MERCPRYLWHMCYS (tested as crude phage supernatant) [Phage-286]	0.84
MDWCPKFLWDECFA (tested as crude phage supernatant) [Phage-304]	0.376
MDWCPRHLWNECFN (tested as crude phage supernatant) [Phage-283]	0.393
MDWCPRHLWFECFN (tested as crude phage supernatant) [Phage-293]	0.171
MDWCPRHLWFECFF (tested as crude phage supernatant) [Phage-300]	0.479
MDWCPRHLWNECFA (tested as crude phage supernatant) [Phage-306]	0.17
MDWCPIALWDFCFA (tested as crude phage supernatant) [Phage-288]	0.492
MDWCPMFLWHECFN (tested as crude phage supernatant) [Phage-309]	0.591
MDWCPRALWDHCFF (tested as crude phage supernatant) [Phage-292]	0.394
MDWCPRYLWHVCFY (tested as crude phage supernatant) [Phage-291]	1.14
MDWCPRYLWHVCFD (tested as crude phage supernatant) [Phage-302]	0.31
MDWCPRDLWAMCFA (cysteine pairing not given here; also: displayed on phage as fusion to pIII, tested as crude phage supernatant) [Phage-285]	0.889

What follows are binders tested against T2, Anti-CD28 scFv (VH - linker 1 - VL) (assay: phage ELISA; biotinylated anti-CD28 scFv on neutravidin plate, clonal phage supernatant, anti-M13-HRP detection;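 note: before phage addition, wells were pretreated with soluble CD28 protein in blocking buffer, or with blocking buffer only as the comparison, then phage were added without washing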).
Experimental: (§1) Clonal phage were harvested as crude supernatants and screened via standard enzyme linked immunosorbent assays (ELISAs). […] Prior to the addition of clonal phage, wells were incubated with blocking buffer and CD28 soluble protein or blocking buffer alone. Without washing or aspirating, clonal phage supernatants were then added to the wells and incubated for a short time. Wells were then washed followed by detection of bound phage using a horse radish peroxidase conjugated anti-M13 antibody.

Binder	CD28 scFv signal
MDWCPRYLWHECFF (tested as crude phage supernatant) [Phage-301]	2.45
MDWCPRDLWSVCFS (tested as crude phage supernatant) [Phage-290]	2.5
MDWCPIYLWAECFN (tested as crude phage supernatant) [Phage-299]	2.45
MDWCPRDLWFACFA (tested as crude phage supernatant) [Phage-282]	2.66
MDWCPRYLWPVCFH (tested as crude phage supernatant) [Phage-307]	2.39
MDWCPRYLWDYCFA (tested as crude phage supernatant) [Phage-280]	2.71
MDWCPRSLWDYCFA (tested as crude phage supernatant) [Phage-294]	2.49
MDWCPRYLWTECFS (tested as crude phage supernatant) [Phage-303]	2.42
MDWCPRDLWTECFS (tested as crude phage supernatant) [Phage-305]	2.4
MDWCPRSLWFLCFN (tested as crude phage supernatant) [Phage-281]	2.71
MDWCPKSLWAECFN (tested as crude phage supernatant) [Phage-308]	2.38
MERCPRYLWHMCYS (tested as crude phage supernatant) [Phage-286]	2.59
MDWCPKFLWDECFA (tested as crude phage supernatant) [Phage-304]	2.41
MDWCPRHLWNECFN (tested as crude phage supernatant) [Phage-283]	2.65
MDWCPRHLWFECFN (tested as crude phage supernatant) [Phage-293]	2.49
MDWCPRHLWFECFF (tested as crude phage supernatant) [Phage-300]	2.45
MDWCPRHLWNECFA (tested as crude phage supernatant) [Phage-306]	2.39
MDWCPIALWDFCFA (tested as crude phage supernatant) [Phage-288]	2.52
MDWCPMFLWHECFN (tested as crude phage supernatant) [Phage-309]	2.38
MDWCPRALWDHCFF (tested as crude phage supernatant) [Phage-292]	2.49
MDWCPRYLWHVCFY (tested as crude phage supernatant) [Phage-291]	2.5
MDWCPRYLWHVCFD (tested as crude phage supernatant) [Phage-302]	2.44
MDWCPRDLWAMCFA (cysteine pairing not given here; also: displayed on phage as fusion to pIII, tested as crude phage supernatant) [Phage-285]	2.63

Each binder was assayed against T3, Anti-CD28 scFv (VH - linker 1 - VL) (biotinylated (site not stated)) (assay: phage ELISA as above, wells pre-incubated with soluble CD28 (competitor);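 note: ELISA of crude clonal phage supernatants added to wells pre-treated with soluble CD28 in blocking buffer, bound phage read out with HRP-conjugated anti-M13 antibody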).
T3 construct: Biotinylated scFv captured on neutravidin coated plates in the panning ELISA
T3 sequence (scFv, as listed by the source): as above

Binder	CD28 scFv signal in presence of CD28
MDYCPSYLWHECFA [Phage-380]	0.09
MHWCPLYLWDECFY [Phage-366]	0.376
NHWCPTTLWNRCVA [Phage-386]	0.093
MAWCPLDLWDKCFY [Phage-374]	0.141
ITWCPTSLWNRCLV [Phage-382]	0.089
MTWCPAYLWHECFN [Phage-370]	0.139
MNWCPRALWHECFL [Phage-375]	0.107
MDWCPFDLWLECFN [Phage-377]	0.12
MDWCPRSLWAQCFY [Phage-364]	0.14
MDWCPRNLWAECFS [Phage-379]	0.08
MAWCPRILWHQCFN [Phage-381]	0.129
IMWCPTSLWNRCVT [Phage-384]	0.129
MDWCPSYLWPVCFN [Phage-365]	0.131
MDWCPRHLWLECFN [Phage-387]	0.074
MDWCPRYLWVDCFA [Phage-372]	0.218
MDWCPSFLWYECFN [Phage-367]	0.104
LAGCQRDLATVCVI [Phage-383]	0.116
MDWCPRHLWTYCFH [Phage-376]	0.207
MHWCPLHLWNECFA [Phage-378]	0.083
MSWCPPYLWTVCYN [Phage-368]	0.326
MDWCPRILWSDCFN [Phage-373]	0.113
MHWCPRDLWYECFA [Phage-369]	0.108
ILRCQMNLQDECLN [Phage-385]	0.077

What follows are binders tested against T3, Anti-CD28 scFv (VH - linker 1 - VL) (assay: phage ELISA; biotinylated anti-CD28 scFv on neutravidin plate, clonal phage supernatant, anti-M13-HRP;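 note: before the phage were added, wells were pre-incubated with soluble CD28 protein in blocking buffer, or with blocking buffer alone, and were not washed in between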).
Experimental: as §1

Binder	CD28 scFv signal
MDYCPSYLWHECFA [Phage-380]	0.47
MHWCPLYLWDECFY [Phage-366]	1.16
NHWCPTTLWNRCVA [Phage-386]	0.078
MAWCPLDLWDKCFY [Phage-374]	0.77
ITWCPTSLWNRCLV [Phage-382]	0.242
MTWCPAYLWHECFN [Phage-370]	0.985
MNWCPRALWHECFL [Phage-375]	0.759
MDWCPFDLWLECFN [Phage-377]	0.65
MDWCPRSLWAQCFY [Phage-364]	1.39
MDWCPRNLWAECFS [Phage-379]	0.538
MAWCPRILWHQCFN [Phage-381]	0.322
IMWCPTSLWNRCVT [Phage-384]	0.161
MDWCPSYLWPVCFN [Phage-365]	1.18
MDWCPRHLWLECFN [Phage-387]	0.066
MDWCPRYLWVDCFA [Phage-372]	0.917
MDWCPSFLWYECFN [Phage-367]	1.13
LAGCQRDLATVCVI [Phage-383]	0.229
MDWCPRHLWTYCFH [Phage-376]	0.757
MHWCPLHLWNECFA [Phage-378]	0.575
MSWCPPYLWTVCYN [Phage-368]	1.1
MDWCPRILWSDCFN [Phage-373]	0.847
MHWCPRDLWYECFA [Phage-369]	0.995
ILRCQMNLQDECLN [Phage-385]	0.083

These binders were tested against T1, Anti-CD28 scFv (VH - linker 1 - VL) (assay: phage binding ELISA on anti-CD28 scFv plate; wells pre-incubated with soluble CD28 as competitor;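 note: clonal phage supernatants tested, bound phage read out with an HRP-linked anti-M13 antibody, reference wells received blocking buffer lacking CD28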).
Experimental: as §1

Binder	CD28 scFv signal in presence of CD28
B1	0.746
B2	0.165
B3	0.137
